Source: the DeepSol protein solubility set

Assay: soluble on expression in E. coli; label from the status in PepcDB or PDB records

Sequence | soluble on expression in E. coli
MTARARSALLDAEHIVGYTTYVELLPDEITEGADDIYNTPMCGEVSRTEEAIDRALAGNDVAIIGSGDPNVYALAGLALEIIESKGATATMLDFDVVPGVP | not soluble
MAHHHHHHMLLFKRPHLRACESHADIAVDLAPLSQLRNYAEFEELLREELQKIYGNAPAEFHGVITYSTRDAPQSFRGCFTERQLETLHQYDAAVEKINHLSSEYRVALEEHERLVEGNKDRKPTQKRIREEEKSRKRLRAMKREVVAAEYNKECLSLKLKNLFSIDVIRVPLH | soluble
MGSSHHHHHHSSGLVPRGSHMGTASNGSTQQLPQTIIIGVRKGGTRALLEMLSLHPDVAAAENEVHFFDWEEHYSQGLGWYLTQMPFSSPHQLTVEKTPAYFTSPKVPERIHSMNPTIRLLLILRDPSERVLSDYTQVLYNHLQKHKPYPPIEDLLMRDGRLNLDYKALNRSLYHAHMLNWLRFFPLGHIHIVDGDRLIRDPFPEIQKVERFLKLSPQINASNFYFNKTKGFYCLRDSGKDRCLHESKGRAHPQVDPKLLDKLHEYFHEPNKKFFKLVGRTFDWH | soluble
MSKTRMEKLKTLKTIAETLNQGHDIKATLDEVLKELLSLTNLQSGWIFLIEEDGSYTLAADAYLPPALSRKEKVLMCEGECYCLTKFNNGGLRKAANIMNCKRIESAENLHCFDTEGITHHATVPLEDGDRRFGLLNVAAAGKTMFDEEELHLLESVAFQIGTAIQRMRLSEYQQK | not soluble
MDTYQNMNFHDNINSNIPKNYNSFYEELKKNLNESDILTIAYEVEVLKNIKKINCDEIGKNWDYSFIDSEYGKSTLVILEVGYHLISPYIENNENKKKKLQLFLLLINSMYFPNPYHNANHGATVCHLSKCLAHITDYDSYLNNTYMICYLIASIAHDVGHPGKTNSYLSETNHILSIRYNDMSILENYHCSITFSILQLIGFDFLINNEDTKLVEKNNYTNMRKFIIELIISTDMKLHFEYVDIFKKRKKSQNFDISDTDAINLGTINIKLADIGHTCLKWKDHAKWTMLVSEEFFSQKRVEELHKNKNIDPLNFSNFGKEDNIDEGMIFNYENIYINYINNINNINTYDYSYIKLNFIHHHDFVKSIPSTQVYFFEIIVMPLIKELQSMEKSKKEITQKVLHNLNINLQTWRLIEKNINLFYNTEKMTGTDYYKNLEKQKLLRGIRLLDIAEEDVISLTKNFKEEIKHG | not soluble
MGSDKIHHHHHHMATTLFIQRGDIAAWLADTAATHTVYAPLRDKTGVRFHRLCAQDAAAQTQALELDRQAQTPPKNVLLPACETLLEFSYAKQEDGSTSLDVQPVMPQGAVLLFGPRPCDARAFTVFDRVYDAGRGKDPYYTARRAATVVASVVCTRPEQSCFCTAVGGAPDDTEGSDILFTPVQDGFIVRPLTQAAEAVLRHPLFTEAAHREEEAADVCAAARAAVPCAPADFTAAPEPVAALFDDMEFWQSVTAKCLSCGACTYLCPTCYCFNITDESNGLEGRRLRTWDNCMSFQFTLEGSGHNPRPTKAHRYRNRIGHKFSYYPRIHDGALSCVGCGRCISSCPVTMDIRRIVHSAMQRAQCATPEQAHE | not soluble
MPKVISQKEFNILSRTKERVNFQIVYTKQRNGLHKAAKEYFFKDKDFTIIEDTPDTPDQPDGPCITKGPKEPGGPEEPNGPDKPEDPKDPDTPDVSEGPKEQGGQKDPGGPDDPSEGKQKVSKPDKYVTHRELDEKLKDFATKADFKRVEDKVDVLFELQKTQGEQIKVQGEQIKAQGKQIEQLTETVKVQGEQIRAQGEQIKAQSEEIKEIKVEQKAQGEQIKELQVEQKAQGKTLQLILKTLEKMNERLEKLESK | soluble
SLDITLVFPHQLFADHPAIQAGRTVALIEDPLLFGTDPQWPLRMHHQRRLLHRASMTVYAEQLRGRGFNVIHQRHDAAPDTQGHLQLLHSAGYRHVHLVDLVDHWLERRLNAFAESVALRVSVLPTPMLLTPADVLEKHFGTGKKPLMAKFYEMQRTRLGVLMDAEGRPVGGRWSFDADNRKKLPKDISVPPIPVATPSTVVNTSRQQLAQENLPGVGKLDGFYYP | soluble
MGSDKIHHHHHHMTSARRMLIDANTTPFYHVINRCVRRAFLCGEDKLTGRSYEHRRGWIVDKIKALSAIFCIDICAYAVMSNHYHLVLKIDVEKAKSLTQKDIISRWCQITKGHAIATKYMNGDALIEGERMLLDALIAEWHERLSSISWFMRCLNEEIARKANREDECKGAFWEGRFKSQALLDEQALLACMMYVDLNPIRAGIADSLQSSDFTSIQERMNSLNTHSIAPKLAKITVDNTLSIPHKSLAKFEGATHIHQQTGIPFHFADYLELIDWTGRAIRHDKKGFIDNLRPKLLNELGIASDAWLLSAKEFRRQYSGVSGRWDAMCAFKHKQGGKWCRGKSHSQALHPEQINGLTLR | not soluble
MCGKTILLEVTPCDNFVFNKSTNLTDTAYVTLKNISEKPVCFKVKTSVPNMYVSRPNPDLLKPGEARQLSVKFRSSDKVSLNAKSYKLKIESCEFESEDIDDLKSFWSSIPNEKILVHKSPIILGTGSSPDFRNDQIASESSRQSSPIQNVSDDGKSSHHSTAKQLQENNENSKSLKYTKQLVEVPLGENQQADQTGTTCDKKDEFQKKNQLEVEIKFVDKIHEIKSQLEDSFELKLKEMEMRLEEKFEKRISRLTQFMETISLSNSPGNSRRVFELDDNFSIVAKKELEQMRQDFEKVLDGQNKIAEEKMNELRKRREELQV | not soluble
MKINLEELKFGTELIKRGFAKMQKGGVIMDVTNAEQAAIAEEAGAVAVMALHKVPADIRAAGGVARMADPKKIQEIIDAVTIPVMAKCRIGHIAEARALEALGVDMIDESEVLTPADVFFHIDKRKFVVPFVCGARSLGEAVRRIWEGAAMIRTKGEAGTGNVVEAVKHMRLINRAIFELQKMNEERIYGVAEKYASRYAELASRVREEMGLESVSRNDVVFEEYTLGEIIDGIYEILLEIRELGRLPVVNFAAGGVATPADAALMMQLGADGVFVGSGIFKSSNPPEYAKAIVEAVQHYDEPEVVAEVSKGLGEAMKGLDVFKLSEDERLQTRGL | not soluble
ELHAELVKRQHLETFLKTQIESELVDVYFQPIIETRTGNVVKFEALARFYHENSEYSTQEMISIIEDLELIAALDDVVCQTALKQWSHLQKIYGENIGLSINRSLNTKLDSLQVLQRSLDLIKASDVNPKLVTIELTETAYFEQDEEHAFALEQIRQEGIQIAIDDFGTGYSSFSYLEEGQFDVLKIDRKFVKNIHEGSTSYNIVKTITDLAHKLNVEVVAEGVESQRELEVLAGIGVDYMQGFLFSQA | not soluble
MSFNKEDQQDEALAFLLAVATVESGDAGAFRQRVTQYMTKAYGEDTSKMTMQEQGRAEAVSRLYARADNIYHRIKVNALPRLSRGF | not soluble
MGSDKIHHHHHHMTKNNEAGWNLDNSYATLPHSFYTEIPPTPVSSPELVKLNHSLAISLGFNPEELKKETEIAIFAGNALPEGAHPLAQAYAGHQFGHFNMLGDGRALLIGEQITPSGKRFDIQLKGSGPTPYSRRGDGRAALGPMLREYIISEAMYALDIPTTRSLAVVTTGEPTYRETKLPGAILTRVASSHIRVGTFQYAAARGSIEDLQSLADYTIKRHYPEIEDPENRYTALLQEVIKKQASLIAKWQLVGFIHGVMNTDNITISGETIDYGPCAFMDHYDQGTVFSSIDTQGRYAYGNQPYMAAWDLARLAESLIPILHEDEEEALKIAQDEISKFSVQYENLWFLGMKKKLGLFSNEEQDHSLIEQLLKMMEKYKADYTNTFRSLTLNTLENTPLFDSSEFKEWYKLWQSRLERQDESKENAYEMMKNNNPSIIPRNHRVEEALEAAVTNGDYSVMEKLLEALANPYAYATDQEEYCVTPAPTNRPYRTFCGT | not soluble
MAHHHHHHMAYVFDKITKTVTIYMGNTKSKIVLGGLWQRGMKGYIIYDVARQGTPPDTNFAPTTGWSMILVSSPNVRNYDGWATQVKASRIIMNCPDEMDVKAMCAWMKRGLDTDKQAGYWKMVEKHMEKVGPIPRHIFDADEYGERTWDATSALRWINIGEQRKYFTKGGEQWYSEDLSHKLLKIVRVREDGAFEDLSNAPICDYLGVLTVSRLAKALSPNDILFLVLGMKNVVQSAALKKYGLNVFLSVEFVTSIVTDLKELQPPSPSEPRSSVLTLNPHGYPTEAAAITELKFIDRPQELKYRVLYIPTFPTFPLVDGFFFVDSPRKTLVGLQMTTASAHHTTASTVRQFTECMAAYFDDWDEFSRDMSWDMIYIQHAASKPMKKRQKCLYVDSNNKTDAEKKIVAFWNGKVHQYQFVLTTDF | not soluble
CSEPYEGKVAVASVILNRLQNPEFPKSIGDVIKQKYAFSCIRDGKIEVTPNQECYNAVMDALHGKDPTPKAMYFYNPRISTSSWMNNIQKENVKVIGNHVFFKTYKE | not soluble
